Source: US12594347B2, “Nanoparticulate drug delivery systems” (Duke University, priority 2018, dated 2026)
Values joined by “and” are separate entries in the source; they are usually repeats but may differ in a detail not shown here. Equal values may be shown once.

Experiments:
[1] = Canine hematology one week after administration; type: in vivo, dogs (beagles and hounds); details: dogs
Description: Canine pharmacokinetics and toxicities. […] If noted, supportive care was provided.

C26 tumors = test: Tumor regression and survival, C26 colon cancer model; type: in vivo, Balb/C mice
Protocol: Cell culture and tumor inoculation.
Tumor regression and survival. […] Tumor size and body weight were monitored over a span of two months. Tumor volume was calculated as follows: Volume [mm^3]=length×width 2×π/6. Mice with a tumor volume greater 1000 mm^3 or body weight loss greater than 15% were euthanized.

[2] = pH dependent drug release
Protocol: pH dependent drug release. […] Samples were incubated at 37° C. for 0.0, 0.25, […], 0.5, 1, 2, 4, 6, or 24 hr and were neutralized by addition of pH 7.4 (0.1 M NaH2PO4). […] Eluting peaks were detected with a UV-Visible detector set at 490 nm. […] HPLC data was quantified by integrating the area under the peak corresponding to the free drug. […] For pH 5.0 samples, data points were fit by nonlinear regression to a first order release model: F %, released=a[1−exp(−ln(2) t/t1/2)] (1) where t is the time (hrs) after incubation, t1/2 is the half-life (hrs) of release, and a (%) is the maximum extent of drug release.

[3] = one week after administration, individual subjects

B1: ABDN-CP-DOX (conjugate)
chain: LAEAKVLANRELDKYGVSDYYKNLINNAKTVEGVKALIDEILAALPVPGAGVPGAGVPGAGVPGAGVPGAGVPGAGVPGAGVPGAGVPGAGVPGAGVPGAGVPGAGVPGAGVPGAGVPGAGVPGAGVPGAGVPGAGVPGAGVPGAGVPGAGVPGAGVPGAGVPGAGVPGAGVPGAGVPGAGVPGAGVPGAGVPGAGVPGAGVPGAGVPGAGVPGAGVPGAGVPGAGVPGAGVPGAGVPGAGVPGAGVPGAGVPGAGVPGAGVPGAGVPGAGVPGAGVPGAGVPGAGVPGAGVPGAGVPGAGVPGAGVPGAGVPGAGVPGAGVPGAGVPGAGVPGAGVPGAGVPGAGVPGAGVPGAGVPGAGVPGAGVPGAGVPGAGVPGAGVPGAGVPGAGVPGAGVPGAGVPGAGVPGAGVPGAGVPGAGVPGAGVPGAGVPGAGVPGAGVPGAGVPGAGVPGAGVPGAGVPGAGVPGAGVPGAGVPGAGVPGAGVPGAGVPGAGVPGAGVPGAGVPGAGVPGAGVPGAGVPGAGVPGAGVPGAGVPGAGVPGAGVPGAGVPGAGVPGAGVPGAGVPGAGVPGAGVPGAGVPGAGVPGAGVPGAGVPGAGVPGAGVPGAGVPGAGVPGAGVPGAGVPGAGVPGAGVPGAGVPGAGVPGAGVPGAGVPGAGVPGAGVPGAGVPGAGVPGAGVPGAGVPGAGVPGAGVPGAGVPGAGVPGAGVPGAGVPGAGVPGAGVPGAGVPGAGVPGAGVPGAGVPGAGVPGAGVPGAGCGGCGGCGGCGGCGGCGGCGGCGG
Question: Which “Abonormal Lymphs” value [1, 3] does the source give for B1 here?
Answer: 0.157 10^3/μL and 0.561 10^3/μL

Question: And the Hematocrit [1, 3]?
Answer: 42.7% and 43.9%

Question: And the Hemoglobin [1, 3]?
Answer: 14.7 g/dL and 14.6 g/dL

Question: And the Lymphocytes [1, 3]?
Answer: 1.572 10^3/μL and 1.122 10^3/μL

Question: What about the MCH [1, 3] of the same molecule?
Answer: 24.6 pg and 23.6 pg

Question: And the MCHC [1, 3]?
Answer: 34.3 g/dL and 33.2 g/dL

Question: And the MCV [1, 3]?
Answer: 71.7 fL and 71 fL

Question: What about the MPV [1, 3] of the same molecule?
Answer: 12.2 fL and 11.9 fL

Question: What about the Monocytes [1, 3] of the same molecule?
Answer: 0.314 10^3/μL and 0.21 10^3/μL

Question: And the PCT [1, 3]?
Answer: 0.28% and 0.25%

Question: And the “Packed Cell-Volume” value [1, 3]?
Answer: 42%

Question: And the “Plasma Protein” value [1, 3]?
Answer: 6.2 g/dL and 5.8 g/dL

Question: What about the Platelets [1, 3] of the same molecule?
Answer: 228 X10^3/μL and 208 X10^3/μL

Question: And the RBC [1, 3]?
Answer: 5.97 X10^6/μL and 6.19 X10^6/μL

Question: And the RDW [1, 3]?
Answer: 12.8% and 11.7%

Question: And the “Reticulocyte #” value [1, 3]?
Answer: 0.025 X10^6/μL and 0.014 X10^6/μL

Question: And the Reticulocyte % [1, 3]?
Answer: 0.43% and 0.23%

Question: And the “Reticulocyte Absolute” value [1, 3]?
Answer: 25000 µL⁻¹ and 14000 µL⁻¹

Question: What about the “Segmented Neutrophils” value [1, 3] of the same molecule?
Answer: 5.502 10^3/μL and 4.276 10^3/μL

Question: What about the WBC [1, 3] of the same molecule?
Answer: 7.86 X10^3/μL and 7.01 X10^3/μL

Question: What about the “abnormalities in blood hematology (in words)” value ([1]; one week after infusion) of the same molecule?
Answer: no hematology or serum chemistry abnormalities

Question: What about the “tumor bearing mice that survived 60 days after treatment” value (C26 tumors; DOX equivalent dose of 20 mg/kg BW) of the same molecule?
Answer: 50%

Question: And the “tumor growth (in words)” value (C26 tumors; mouse C26 colon cancer model, single treatment on day 0)?
Answer: significantly slower

Question: What about the “in vitro drug release (in words)” value ([2]; acidic conditions, pH 5.0, 37° C.) of the same molecule?
Answer: released the loaded DOX

Question: What about the “in vitro drug release / stability (in words)” value ([2]; pH 7.4, 37° C.) of the same molecule?
Answer: remained stable
